US20060257866, “Methods for identifying small molecules that modulate premature translation termination and nonsense mediated mrna decay” (published 2006)

T1: Tat47-58 peptide (HIV-1 Tat) (HIV-1)
T1 chain: YGRKKRRQRRRP


Experiments:
[1] = target: T1, Tat47-58 peptide (HIV-1 Tat); assay: EMSA; TK buffer: 50 mM Tris-HCl pH 7.4, 20 mM KCl, 0.5 mM MgCl2, 0.1% Triton X-100; peptide 0.1-1.6 uM; annealed from 90 C to 24 C; gel at 4 C; conditions: protein: synthetic; label: 5'-fluorescein, 3'-32P cytidine bisphosphate; hairpin
[2] = target: T1, Tat47-58 peptide (HIV-1 Tat); assay: EMSA; capillary electrophoresis mobility shift; TK buffer 0.5 mM MgCl2; peptide 0.1-1.6 mM as printed; conditions: protein: synthetic; label: 5'-fluorescein; hairpin

Row | Binder | binding result [1] | binding result [2]
1 | GGCAGAUCUGAGCCUGGGAGCUCUCUGCC (ssRNA) [HIV-1 TAR RNA oligonucleotide] | binds | –
2 | GGCAGAUCUGAGCCUGGGAGCUCUCUGCC (ssRNA) [HIV-1 TAR RNA oligonucleotide (fluorescein only)] | – | binds
